From publication PMC9814550, “Exo-selective intermolecular Diels–Alder reaction by PyrI4 and AbnU on non-natural substrates” (Communications Chemistry, 2021)

How the values were obtained:
Experiment in all cases: intermolecular Diels-Alder kinetics
[1] = substrate: C=C/C=C/NC(=O)OCc1ccc(C(=O)OC)cc1; type: biochemical, Parafrankia colletiae; settings: co-substrate 2, PBS pH 7.4, 37 °C
Text: intermolecular Diels-Alder kinetics on AbnU

[2] = substrate: C=C/C=C/NC(=O)OCc1ccc(C(=O)OC)cc1; type: biochemical, Streptomyces rugosporus; settings: co-substrate 2, PBS pH 7.4, 37 °C
Text: (§1) intermolecular Diels-Alder kinetics on PyrI4

[3] = substrate: C=CC(=O)N(C)C; type: biochemical, Streptomyces rugosporus; settings: co-substrate 1a, PBS pH 7.4, 37 °C
Text: as §1

B1: AbnU (Parafrankia colletiae) (protein)
chain: MSVVHEGIWEPQIRNEQNVNVADPQVGQIGSYYDELYDSSRELLGITIGRYEIRYKKVGGAVLTYYSEDLFLRDGIIHAEGWADFNDVKNGVWVGYPAVGLDGVYRGLDGRREWRVIEPDQPVEARISLHG
notes: N-terminal poly-His tag, pET28a(+), codon-optimised synthetic gene, E. coli; dimer
For B1, the Km [1] was 200 ± 10 µM and the kcat [1] was 1.17e-05 ± 2.8e-07 s⁻¹.

B2: PyrI4 (Streptomyces rugosporus) (protein)
chain: MTTPQIDERAMEAGAAALQETIVDPGPLDVTALAVAAALAAGLHSAADDPAAALDKCIVLDELTEFAEKLVVHDRPGGIGTTVEYVEVYEDASGVRLGTATGNAVVLKMEPHMWQFHQSVSELADGSFEAVGVIDCTAMLRRMTQVLRVTGRSGRYAGKSGFMTLAISDPNQRPPHYSVQVVLC
notes: full length, N-terminal poly-His tag, pET28a(+), codon-optimised synthetic gene, E. coli
For B2, the Km [2] was 200 ± 10 µM, the kcat [2] was 6.39e-06 ± 5.6e-07 s⁻¹ and the Km [3] was 100000 ± 1250 µM. The kcat [3] was 6.39e-06 ± 5.6e-07 s⁻¹.
